In patent US20250205358A1, “PHOTOACTIVATABLE NANOPARTICLES AND USES THEREOF AS AGENTS FOR IMMUNOTHERAPY COMBINATIONS” (Board of Regents, The University of Texas System, priority 2023, published 2025):

What was measured:
PDAC = PDAC patients, standard of care; cited from earlier work
PD-L1 = assay: Fold increase in PD-L1 expression with mIFN-γ (flow cytometry); type: cell-based, murine; settings: 40 ng/ml, 24 h
Description: Fold increase in PD-L1 expression and binding specificity of iTPALs: Confluent AT84, LLC, MC38, ID8, CT1BA5 and BMFA3 cells were washed in PBS, trypsinized, and collected in their respective media. The cells were counted and diluted to seed 1.5×10^5 cells per well in a 6 well plate (Corning) overnight. The next day, the media was replaced with fresh media containing 40 ng/ml of mIFN-γ and incubated for an additional 24 h. The cells were then trypsinized, dispersed in their respective media and counted using a cell counter (Bio-Rad). Cells were diluted in their respective media to obtain a concentration of 5×10^5 cells/ml. Then, 100 μl of the counted cells were placed in the 1.5 ml microcentrifuge tubes. To calculate the fold increase in PD-L1 expression, 100 μl of 40 µg/ml α-PD-L1 equivalent of α-PD-L1-AF488 were then added to the cells whereas to monitor the binding specificity of iTPALs (17α), 100 μl of 500 nM BPD-PC equivalent of either 100 μl PALs or TPALs (17α) added to the cells and incubated at 37° C. for 30 mins in the dark. The cells were then pelleted by […] for 5 mins at 1000×g, and the supernatants containing free unbound PALs and iTPALs (17α) were discarded. The cells were then resuspended in 300 μl of FACS buffer and transferred into flow cytometry tubes. For each condition, 10,000 cells were analyzed using a BD Fortessa flow cytometry analyzer with a 405 nm laser/710 nm bandpass detector pair for BPD-PC fluorescence and a 488 nm laser/530 nm detector pair for AF488 fluorescence. The data was then analyzed using FlowJo to calculate the median fluorescence of BPD-PC and AF488. The increase in PD-L1 expression after treating the cells with mIFN-γ was calculated as shown in Equation 1 below and the binding specificity of iTPALs (17α) was calculated as shown in Equation 2 below.

In the case of FOLFIRINOX, the Overall survival (PDAC) is given as 11.1 months.

B1: mIFN-γ: mouse Interferon Gamma Protein (Sino Biological) (protein, UniProt P01580 23-155, looked up)
Interferon gamma: HGTVIESLESLNNYFNSSGIDVEEKSLFLDIWRNWQKDGDMKILQSQIISFYLRLFEVLKDNQAISNNISVIESHLITTFFSNSKAKKDAFMSIAKFEVNNPQVQRQAFNELIRVVHQLLPESSLRKRKRSRC
For B1, the “Increase in PD-L1 expression” value (PD-L1; AT84 head and neck cancer cells) was 1.8 fold, the “Increase in PD-L1 expression” value (PD-L1; BMFA3 PDAC cells) was 2.5 fold and the “Increase in PD-L1 expression” value (PD-L1; CT1BA5 PDAC cells) was 1.5 fold. The “Increase in PD-L1 expression” value (PD-L1; ID8 ovarian cancer cells) was 2.9 fold, the “Increase in PD-L1 expression” value (PD-L1; LLC lung cancer cells) was 1.4 fold and the “Increase in PD-L1 expression” value (PD-L1; MC38 colon cancer cells) was 1.8 fold.
